Reference: patent US20200199241A1 (Chugai, published 2020)
Residue numbers refer to the chain shown, from its start.

B1: IgG1-F1032 (antibody)
heavy: QVQLQESGPGLVKPSETLSLTCAVSGHSISHDHAWSWVRQPPGEGLEWIGFISYSGITNYNPSLQGRVTISRDNSKNTLYLQMNSLRAEDTAVYYCARSLARTTAMDYWGEGTLVTVSSASTKGPSVFPLAPSSKSTSGGTAALGCLVKDYFPEPVTVSWNSGALTSGVHTFPAVLQSSGLYSLSSVVTVPSSSLGTQTYICNVNHKPSNTKVDKKVEPKSCDKTHTCPPCPAPELLGGDSVFLFPPKPKDVLYISRTPEVTCVVVDVSHEDPEVKFNWYVDGVEVHNAKTKPREEQYNSTYRVVSVLQVLHADWLNGKEYKCKVSGKALPAPIEKTISKAKGQPREPQVYTLPPSRDELTKNQVSLTCLVKGFYPSDIAVEWESNGQPENNYKTTPPVLDSDGSFFLYSKLTVDKSRWQQGNVFSCSVMHEALHYHVTQKSLSLSP
light: not shown
notes: EU numbering; copies: 2 + 2
B2: IgG1-F1075 (antibody)
heavy: B1 heavy with D240P, V252T, Q309T, A313Q, G327N, K328D, L330Y
light: not shown
notes: EU numbering; copies: 2 + 2
B3: IgG1-F1081 (antibody)
heavy: B1 heavy with D240P, V252T, Q309T, A313Q, G327N, V438N, Q440T
light: not shown
notes: EU numbering; copies: 2 + 2
B4: IgG1-F1044 (antibody)
heavy: B1 heavy with L237K, D240P, S241K, V310P, G327N, V438Y
light: not shown
notes: EU numbering; copies: 2 + 2
B5: IgG1-F1061 (antibody)
heavy: B1 heavy with D240P, V252T, Q309T, A313Q, G327N, P389E
light: not shown
notes: EU numbering; copies: 2 + 2
B6: IgG1-F1070 (antibody)
heavy: B1 heavy with D240P, V252T, Q309T, A313Q, G327N, Q440R
light: not shown
notes: EU numbering; copies: 2 + 2
B7: IgG1-F1042 (antibody)
heavy: B1 heavy with L237K, D240P, S241K, V252T, Q309A, A313H, G327N, V438Y
light: not shown
notes: EU numbering; copies: 2 + 2
B8: IgG1-F1052 (antibody)
heavy: B1 heavy with L237R, D240P, S241K, V252T, N288E, V310P, G327N, M430I
light: not shown
notes: EU numbering; copies: 2 + 2
B9: IgG1-F1114 (antibody)
heavy: B1 heavy with D240P, V252T, Q309T, A313Q, G327N, S442Q
light: not shown
notes: EU numbering; copies: 2 + 2
B10: IgG1-F1063 (antibody)
heavy: B1 heavy with D240P, V252T, Q309T, A313Q, G327N, P389S
light: not shown
notes: EU numbering; copies: 2 + 2
B11: IgG1-F1038 (antibody)
heavy: B1 heavy with L237K, S241K, V252T, Q309T, A313Q, G327N, V438Y
light: not shown
notes: EU numbering; copies: 2 + 2
B12: IgG1-F1035 (antibody)
heavy: B1 heavy with L237K, D240P, S241K, V252T, V310P, G327N
light: not shown
notes: EU numbering; copies: 2 + 2
B13: IgG1-F1068 (antibody)
heavy: B1 heavy with D240P, V252T, Q309T, A313Q, G327N, S426R
light: not shown
notes: EU numbering; copies: 2 + 2
B14: IgG1-F1095 (antibody)
heavy: B1 heavy with D240P, V252T, Q309T, A313Q, G327N, S385N, G387S, V438Y
light: not shown
notes: EU numbering; copies: 2 + 2
B15: IgG1-F1050 (antibody)
heavy: B1 heavy with D240P, N288E, V310P, G327N, M430I
light: not shown
notes: EU numbering; copies: 2 + 2
B16: IgG1-F1037 (antibody)
heavy: B1 heavy with L237K, D240P, S241K, V252T, G327N, M430I
light: not shown
notes: EU numbering; copies: 2 + 2
B17: IgG1-F1051 (antibody)
heavy: B1 heavy with L237R, D240P, S241K, N288E, V310P, G327N, M430I
light: not shown
notes: EU numbering; copies: 2 + 2
B18: IgG1-F1045 (antibody)
heavy: B1 heavy with L237K, D240P, S241K, V252T, V310P, G327N, V438Y
light: not shown
notes: EU numbering; copies: 2 + 2
B19: IgG1-F1115 (antibody)
heavy: B1 heavy with D240P, V252T, Q309T, A313Q, G327N, S426N
light: not shown
notes: EU numbering; copies: 2 + 2
B20: IgG1-F1096 (antibody)
heavy: B1 heavy with D240P, V252T, Q309T, A313Q, G327N, Q388T, V438Y
light: not shown
notes: EU numbering; copies: 2 + 2
B21: IgG1-F1111 (antibody)
heavy: B1 heavy with D240P, V252T, Q309T, A313Q, G327N, S426K
light: not shown
notes: EU numbering; copies: 2 + 2
B22: IgG1-F1077 (antibody)
heavy: B1 heavy with D240P, K250N, V252T, Q309T, A313Q, G327N, V438Y
light: not shown
notes: EU numbering; copies: 2 + 2
B23: IgG1-F1066 (antibody)
heavy: B1 heavy with D240P, V252T, Q309T, A313Q, G327N, V424S
light: not shown
notes: EU numbering; copies: 2 + 2
B24: IgG1-F1040 (antibody)
heavy: B1 heavy with L237K, D240P, S241K, Q309T, A313Q, G327N
light: not shown
notes: EU numbering; copies: 2 + 2
B25: IgG1-F1083 (antibody)
heavy: B1 heavy with D240P, V252T, Q309T, A313Q, G327N, V438Y, S442N
light: not shown
notes: EU numbering; copies: 2 + 2
B26: IgG1-F1073 (antibody)
heavy: B1 heavy with D240P, V252T, Q309T, A313Q, G327N, S442R
light: not shown
notes: EU numbering; copies: 2 + 2
B27: IgG1-F1102 (antibody)
heavy: B1 heavy with D240P, V252T, G327N, K328D, L330Y, V438Y
light: not shown
notes: EU numbering; copies: 2 + 2
B28: IgG1-F1104 (antibody)
heavy: B1 heavy with D240P, V252T, Q309T, A313Q, G327N, V424E, S426R
light: not shown
notes: EU numbering; copies: 2 + 2
B29: IgG1-F1082 (antibody)
heavy: B1 heavy with D240P, V252T, Q309T, A313Q, G327N, V438Y, Q440N
light: not shown
notes: EU numbering; copies: 2 + 2
B30: IgG1-F1098 (antibody)
heavy: B1 heavy with D240P, S241D, V252T, Q309T, A313Q, G327N, V438Y
light: not shown
notes: EU numbering; copies: 2 + 2
B31: IgG1-F1041 (antibody)
heavy: B1 heavy with L237K, D240P, S241K, V310P, G327N
light: not shown
notes: EU numbering; copies: 2 + 2
B32: IgG1-F1062 (antibody)
heavy: B1 heavy with D240P, V252T, Q309T, A313Q, G327N, P389R
light: not shown
notes: EU numbering; copies: 2 + 2
B33: IgG1-F1047 (antibody)
heavy: B1 heavy with L237K, D240P, S241K, V252T, N288E, V310P, G327N
light: not shown
notes: EU numbering; copies: 2 + 2
B34: IgG1-F1100 (antibody)
heavy: B1 heavy with D240P, S241D, V252T, Q309T, A313Q, G327N, K328D, L330Y, V438Y
light: not shown
notes: EU numbering; copies: 2 + 2
B35: IgG1-F1067 (antibody)
heavy: B1 heavy with D240P, V252T, Q309T, A313Q, G327N, S426E
light: not shown
notes: EU numbering; copies: 2 + 2
B36: IgG1-F1109 (antibody)
heavy: B1 heavy with D240P, V252T, Q309T, A313Q, G327N, V424T
light: not shown
notes: EU numbering; copies: 2 + 2
B37: IgG1-F1034 (antibody)
heavy: B1 heavy with L237K, D240P, S241K, V252T, Q309T, V310P, A313Q, G327N
light: not shown
notes: EU numbering; copies: 2 + 2
B38: IgG1-F1107 (antibody)
heavy: B1 heavy with D240P, V252T, Q309T, A313Q, G327N, V424D
light: not shown
notes: EU numbering; copies: 2 + 2
B39: IgG1-F1048 (antibody)
heavy: B1 heavy with L237K, D240P, S241K, V252T, Q309A, A313H, G327N
light: not shown
notes: EU numbering; copies: 2 + 2
B40: IgG1-F1046 (antibody)
heavy: B1 heavy with L237K, D240P, S241K, N288E, V310P, G327N
light: not shown
notes: EU numbering; copies: 2 + 2
B41: IgG1-F1105 (antibody)
heavy: B1 heavy with D240P, V252T, Q309T, A313Q, G327N, V424S, S426R
light: not shown
notes: EU numbering; copies: 2 + 2
B42: IgG1-F1116 (antibody)
heavy: B1 heavy with D240P, V252T, G327N, S426N, V438Y
light: not shown
notes: EU numbering; copies: 2 + 2
B43: IgG1-F1069 (antibody)
heavy: B1 heavy with D240P, V252T, Q309T, A313Q, G327N, Q440E
light: not shown
notes: EU numbering; copies: 2 + 2
B44: IgG1-F1074 (antibody)
heavy: B1 heavy with D240P, S241D, V252T, Q309T, A313Q, G327N
light: not shown
notes: EU numbering; copies: 2 + 2
B45: IgG1-F1112 (antibody)
heavy: B1 heavy with D240P, V252T, Q309T, A313Q, G327N, Q440K
light: not shown
notes: EU numbering; copies: 2 + 2
B46: IgG1-F1101 (antibody)
heavy: B1 heavy with D240P, S241D, V252T, G327N, V438Y
light: not shown
notes: EU numbering; copies: 2 + 2
B47: IgG1-F1043 (antibody)
heavy: B1 heavy with L237K, D240P, S241K, Q309T, V310P, A313Q, G327N, V438Y
light: not shown
notes: EU numbering; copies: 2 + 2
B48: IgG1-F1053 (antibody)
heavy: B1 heavy with L237R, D240P, S241K, G327N
light: not shown
notes: EU numbering; copies: 2 + 2
B49: IgG1-F1059 (antibody)
heavy: B1 heavy with D240P, V252T, Q309T, A313Q, G327N, Q388R
light: not shown
notes: EU numbering; copies: 2 + 2
B50: IgG1-F1036 (antibody)
heavy: B1 heavy with L237K, D240P, S241K, V252T, N288E, G327N
light: not shown
notes: EU numbering; copies: 2 + 2
B51: IgG1-F1058 (antibody)
heavy: B1 heavy with D240P, V252T, Q309T, A313Q, G327N, Q388E
light: not shown
notes: EU numbering; copies: 2 + 2
B52: IgG1-F1106 (antibody)
heavy: B1 heavy with D240P, V252T, Q309T, A313Q, G327N, Q440R, S442E
light: not shown
notes: EU numbering; copies: 2 + 2
B53: IgG1-F1110 (antibody)
heavy: B1 heavy with D240P, V252T, Q309T, A313Q, G327N, V424Q
light: not shown
notes: EU numbering; copies: 2 + 2
B54: IgG1-F1103 (antibody)
heavy: B1 heavy with D240P, S241D, V252T, G327N, K328D, L330Y, V438Y
light: not shown
notes: EU numbering; copies: 2 + 2
B55: IgG1-F1080 (antibody)
heavy: B1 heavy with D240P, V252T, Q309T, A313Q, G327N, S426N, V438Y
light: not shown
notes: EU numbering; copies: 2 + 2
B56: IgG1-F1065 (antibody)
heavy: B1 heavy with D240P, V252T, Q309T, A313Q, G327N, V424R
light: not shown
notes: EU numbering; copies: 2 + 2
B57: IgG1-F1097 (antibody)
heavy: B1 heavy with D240P, V252T, Q309T, A313Q, G327N, G387N, P389S, V438Y
light: not shown
notes: EU numbering; copies: 2 + 2
B58: IgG1-F1094 (antibody)
heavy: B1 heavy with D240P, V252T, Q309T, A313Q, G327N, V438Y, S444N
light: not shown
notes: EU numbering; copies: 2 + 2
B59: IgG1-F1108 (antibody)
heavy: B1 heavy with D240P, V252T, Q309T, A313Q, G327N, V424K
light: not shown
notes: EU numbering; copies: 2 + 2
B60: IgG1-F1064 (antibody)
heavy: B1 heavy with D240P, V252T, Q309T, A313Q, G327N, V424E
light: not shown
notes: EU numbering; copies: 2 + 2

Molecular target: T1, soluble human FcRn complexed with β2-microglobulin (human, UniProt P61769 21-119, limits assumed)
T1 construct: also called hFcRn
Experiment: Biacore SPR, pH 7.0;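 further: test antibodies captured on a Protein L chip with human FcRn flowed over as analyte, KD obtained as the ratio of dissociation to association rate constants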

Kd [nM] | Binder
43 | B1
140 | B2
620 | B3
35 | B4
119 | B5
173 | B6
200 | B7
3.2 | B8
131 | B9
143 | B10
280 | B11
10 | B12
169 | B13
286 | B14
3.5 | B15
61 | B16
3.9 | B17
25 | B18
135 | B19
272 | B20

Kd [nM] | Binder
165 | B21
2030 | B22
145 | B23
200 | B24
345 | B25
134 | B26
64.6 | B27
177 | B28
276 | B29
258 | B30
14 | B31
120 | B32
3.4 | B33
241 | B34
126 | B35
127 | B36
15 | B37
123 | B38
99 | B39
4.5 | B40

Kd [nM] | Binder
154 | B41
74.4 | B42
139 | B43
132 | B44
123 | B45
65.9 | B46
52 | B47
42.3 | B48
139 | B49
14 | B50
131 | B51
142 | B52
133 | B53
61.1 | B54
319 | B55
138 | B56
282 | B57
260 | B58
126 | B59
132 | B60
